Measurements from the supplement of paper PMC10567573.

B1: TRIM9 (parent)
chain: PRNSCITCPQCHRSLILDDRGLRG

Variants of: B1
Experiment: protein stability index of a GFP-peptide fusion (GPS, HEK-293T) (PSI 1-6); higher = more stable
Details: c terminus: a fixed tail appended
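Further: lentivirally expressed fusions sorted by FACS into six bins by GFP to DsRed ratio, PSI derived from sequencing read proportions per bin multiplied by bin number.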

Variant	protein stability index
PRNSCITCPQCHRSLILDDYGLRG	2.35
PRNSCITCPQCHRSLILDDRGLGG	2.48
PRNSCITCPQCHRSLILDDRGLAG	2.5
PRNSCITCPQCHRSLILDDRGLDG	2.96
PRNSCITCPQCHRSLILDDRGLKG	2.2
PRNSCITCPQCHRSLILDDRGLFG	2.75
PRNSCITCPQCHRSLILDDRGLYG	1.63
PRNSCITCPQCHRSLILDDRGLSG	2.1
PRNSCITCPQCHRSLILDDRGLPG	2.42
PRNSCITCPQCHRSLILDDRGLTG	3
PRNSCITCPQCHRSLILDDRGLCG	2.6
PRNSCITCPQCHRSLILDDRGLMG	1.67
PRNSCITCPQCHRSLILDDRGLQG	2.41
PRNSCITCPQCHRSLILDDRGLNG	2.56
PRNSCITCPQCHRSLILDDRGLLG	2.48
PRNSCITCPQCHRSLILDDRGLEG	3.21
PRNSCITCPQCHRSLILDDRGLIG	2.08
PRNSCITCPQCHRSLILDDRGLHG	2.05
PRNSCITCPQCHRSLILDDRGLWG	1.25
PRNSCITCPQCHRSLILDDRGLVG	1.93
PRNSCITCPQCHRSLILDDRGLRD	2.08
PRNSCITCPQCHRSLILDDRGLRR	1.22
PRNSCITCPQCHRSLILDDRGLRE	2.6
PRNSCITCPQCHRSLILDDRGLRN	1.86

Variant	protein stability index
PRNSCITCPQCHRSLILDDRGLRI	2.03
PRNSCITCPQCHRSLILDDRGLRH	3.02
PRNSCITCPQCHRSLILDDRGLRL	1.81
PRNSCITCPQCHRSLILDDRGLRC	2.35
PRNSCITCPQCHRSLILDDRGLRP	2.03
PRNSCITCPQCHRSLILDDRGLRM	2.17
PRNSCITCPQCHRSLILDDRGLRT	2.23
PRNSCITCPQCHRSLILDDRGLRY	1.84
PRNSCITCPQCHRSLILDDRGLRA	2.13
PRNSCITCPQCHRSLILDDRGLRW	1.76
PRNSCITCPQCHRSLILDDRGLRS	2.35
PRNSCITCPQCHRSLILDDRGLRV	2.32
PRNSCITCPQCHRSLILDDRGLRQ	2.28
PRNSCITCPQCHRSLILDDRGLRK	1.71
PRNSCITCPQCHRSLILDDRGLRF	2.34
PRNSCITCPQCHRSLILDDRALRG	1.93
PRNSCITCPQCHRSLILDDRQLRG	2.01
PRNSCITCPQCHRSLILDDRKLRG	2.52
PRNSCITCPQCHRSLILDDRDLRG	2.07
PRNSCITCPQCHRSLILDDRWLRG	2.06
PRNSCITCPQCHRSLILDDRLLRG	2.09
PRNSCITCPQCHRSLILDDRVLRG	1.78
PRNSCITCPQCHRSLILDDRHLRG	2.11
PRNSCITCPQCHRSLILDDRMLRG	2.8

Variant	protein stability index
PRNSCITCPQCHRSLILDDRTLRG	1.57
PRNSCITCPQCHRSLILDDRCLRG	2.52
PRNSCITCPQCHRSLILDDRFLRG	1.88
PRNSCITCPQCHRSLILDDRSLRG	1.71
PRNSCITCPQCHRSLILDDRILRG	1.47
PRNSCITCPQCHRSLILDDRELRG	2.93
PRNSCITCPQCHRSLILDDRYLRG	2.24
PRNSCITCPQCHRSLILDDRPLRG	2.27
PRNSCITCPQCHRSLILDDRNLRG	2.17
PRNSCITCPQCHRSLIPDDRGLRG	2.4
PRNSCITCPQCHRSLIQDDRGLRG	2.25
PRNSCITCPQCHRSLIFDDRGLRG	2.44
PRNSCITCPQCHRSLIYDDRGLRG	2.11
PRNSCITCPQCHRSLIGDDRGLRG	2.08
PRNSCITCPQCHRSLIADDRGLRG	1.72
PRNSCITCPQCHRSLIHDDRGLRG	2.74
PRNSCITCPQCHRSLIIDDRGLRG	2.05
PRNSCITCPQCHRSLINDDRGLRG	1.79
PRNSCITCPQCHRSLIEDDRGLRG	2.2
PRNSCITCPQCHRSLIWDDRGLRG	1.56
PRNSCITCPQCHRSLISDDRGLRG	2.15
PRNSCITCPQCHRSLIKDDRGLRG	2.1
PRNSCITCPQCHRSLIDDDRGLRG	2.48
PRNSCITCPQCHRSLITDDRGLRG	2.08

Variant	protein stability index
PRNSCITCPQCHRSLICDDRGLRG	2.51
PRNSCITCPQCHRSLIMDDRGLRG	2.21
PRNSCITCPQCHRSLIVDDRGLRG	2.19
PRNSCITCPQCHRSLIRDDRGLRG	2.48
PRNSCITCPQCHRSLILDDRGWRG	2.54
PRNSCITCPQCHRSLILDDRGIRG	2.36
PRNSCITCPQCHRSLILDDRGKRG	2.46
PRNSCITCPQCHRSLILDDRGVRG	2.55
PRNSCITCPQCHRSLILDDRGERG	2.21
PRNSCITCPQCHRSLILDDRGMRG	2.69
PRNSCITCPQCHRSLILDDRGNRG	2.34
PRNSCITCPQCHRSLILDDRGQRG	3.69
PRNSCITCPQCHRSLILDDRGCRG	2.32
PRNSCITCPQCHRSLILDDRGGRG	2.3
PRNSCITCPQCHRSLILDDRGYRG	2.54
PRNSCITCPQCHRSLILDDRGTRG	3.33
PRNSCITCPQCHRSLILDDRGFRG	1.91
PRNSCITCPQCHRSLILDDRGDRG	3.81
PRNSCITCPQCHRSLILDDRGHRG	2.49
PRNSCITCPQCHRSLILDDRGPRG	3.51
PRNSCITCPQCHRSLILDDRGRRG	2.84
PRNSCITCPQCHRSLILDDRGSRG	2.62
